In the data set the target is DDX3X 132-607 (human) (UniProt O00571). The experiment in a line: MST. The settings on record: 20 nM labelled RNA, DDX3X 2-fold dilutions from 19 uM, 10 min at room temperature, measured at 25 C, assay buffer not stated (protein SEC buffer 50 mM …).
Sequence of DDX3X 132-607 (human) (O00571 132-607): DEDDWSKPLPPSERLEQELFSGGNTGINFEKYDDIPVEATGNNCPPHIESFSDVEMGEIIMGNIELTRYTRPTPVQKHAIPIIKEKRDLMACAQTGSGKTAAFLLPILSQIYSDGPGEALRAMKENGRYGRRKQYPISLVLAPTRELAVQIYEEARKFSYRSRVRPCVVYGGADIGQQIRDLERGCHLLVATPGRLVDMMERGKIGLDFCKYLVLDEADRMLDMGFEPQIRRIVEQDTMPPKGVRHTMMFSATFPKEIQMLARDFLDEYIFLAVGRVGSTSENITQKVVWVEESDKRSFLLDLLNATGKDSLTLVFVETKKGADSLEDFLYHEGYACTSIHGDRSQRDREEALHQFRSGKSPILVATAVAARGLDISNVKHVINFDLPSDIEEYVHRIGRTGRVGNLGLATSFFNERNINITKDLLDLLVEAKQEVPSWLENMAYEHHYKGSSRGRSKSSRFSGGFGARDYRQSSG

As for “GGAGAAGUUUUAUCGUGUGAACUUCUUGGCUUAGUAUCGUUGAGAAGAAUCGAGAGAUUAGUGCAGUUUAAACAGUUUUUUAGAACGGAAGAACAACCAUGACUAAAAAACCAGGAGGGCCCGGAAAAAACCGGGCCAUCAAUAUGCUGAAACGCGGAU [JEV 5' TR]”, the Kd came out at 1.66 µM.

With “AGUUGUUACUGUUGCUGACUCAGACUGCGACAGUUCGAGUUUGAAGCGAAAGCUAGCAACAGUAUCAACAGGUUUUAUUUGGAUUUGGAAACGAGAGUUUCUGGUCAUGAAAAACCCAAAAAAGAAAUCCGGAGGAUUCCGGAUUGUCAAUAUGCUAAAACG [ZIKV 5' TR 1-163]”, the Kd was 7.05 µM.

(Values after publication PMC7795613.)
